Measurements reported in the nanobody polyreactivity screen of Harvey et al. (2022).

Experiment: yeast display, Sf9 membrane polyspecificity reagent, FACS + sequencing; frameworks hold sequencing errors
How it was run: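 Galactose-induced (36–48 hours) yeast carrying a synthetic nanobody display library were exposed to 10% biotinylated, detergent-solubilized Sf9 membrane reagent at 4 °C for 1 hour. FACS followed streptavidin microbead enrichment, using low and high (top ~1%) gates for expression (anti-HA) and reagent binding (streptavidin). Colony PCR, MiSeq 2 × 250 sequencing and CDR-length filtering followed. Labels for polyreactivity reflect the gate of origin.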

Sequence | polyreactivity (PSR sort gate)
QVQLVESGGGLVQAGGSLRLSCAASGSIFSINTMGWYRQAPGKERELVAAISRTGGSTYYADSVKGRFTISRDNAKNTVYLQMNSLKPEDTAVYYCAARKYADGRIFYYWGQGTQVTVSS | high polyreactivity
QVQLVESGAGIVQAGGSLRLSCAASGSIFRVYAMGWYRQAPWKERELVAAISRTGGSTYYADSVKGRFTISRDNAKNTVYLPMNSLQPEDTAVDYCAARQRYVGYYYWGQGTQVTVSS | high polyreactivity
QVQLVESGGALVQAGGSLRISCAASGRTLSAYAMGLYRQAPGKERELVAVISRSGGRTYYADSVKGRFTISRDNAKNTVYLQMNSLKQEDSAVYYCAAGSSRLRALYNYWGQGTQVNVSS | high polyreactivity
QVQLVESGGGLVQAGGSLRLTCAASGSIFGDYAMGWYRQAPGKEREFVAGITRRGGRTYYADSVKGRFTISRDNAKNTVYLQMNSLKPEDTAVYYCNAVYSSSLRSKYDYWGQGTQVTVSS | high polyreactivity
QVQLVESGGGLVQAGGSLRLSCAASGRTFRSNAMGWYRQAPGKERELVATISGRGGSTYYADSVKGRFTISRDNAKNTVYLQMNSLKPEDTAVYYCAKRTTLIRDYEYWGQGTQVTVSS | high polyreactivity
QVQLVESGGGLVQAGGSLRLSCAASGSTFYNYAMGWYRQAPGKERELVAAISIGGSTYYADSVKGRFTISRDNAKNTVYLQMNSLKPEDTAVYYCAADDGDFYPIDDYWGQGTQVTVSS | low polyreactivity
QVQLVESGGGLVQAGGSLRLSCAASGSIFVYNDMGWYRQAPGKERELVAGIDWSGDRTYADSVKGRFTISRDNAKYTVYLQMNSLKPEDTAVYYCNAERYPYRLRARKLDYWGQGTQVTVSS | low polyreactivity
QVQLVESGGGLVQAGGSLRLSCAASGRTFGQYVMGWYREAPGKERELVAAIRSGGSTYYADSVKGRFTISRDNAKNTVYLQMNSLKPEDTAVYYCANETYYGTDNFGQVGGEMDYWGQGTQVTVSS | low polyreactivity
QVQLGESGGGFVQAGGSLRLSCAASGSTFSYNAMGWYIQASGKESEFVAAISSSGGRTYYADSVKWRFTISRDYEKNTVYLQMKSLKPEDTAVYYCPAKSRLPTQGLGMYYWGKGTQVTVSS | high polyreactivity
QVQLVESGGGLVQAGGSLRLSCAASGFTFNANAMGWYRQAPGKERELVSVITRSGGRTYYADSVKGGFTISRDTAKNTVYLQMNSLKPEDSAVYYCATEGPSRVYQGTDSASDYWGQGTQVTVSS | high polyreactivity
QVHLVESGGGLVQAGGSLRLTCAASGRIFTSYVMGRSRQAPGQVRDLVAAITRSGGSTYYADSVKGRFTISRDNAKNTVYLQMNSLKPEDTAVYYCNALTRRQNGGEGGGYWGQGTHVTVSS | high polyreactivity
QVQLVESGGGLVQAGGSLRLSCAASGNTFLRYAMGWYRQAPGKERELVAAISTSGDSTYYADSVKGRFTISRDNAKNTVYLQMNSLKPEDTAVYYCAAAWYIHTIAYGCWGQGTQVTVSS | high polyreactivity
QVQLVESGGGLVQAGGSLRLSCAASGIIFAYYAMGRSRQAPGKEMEFVAGISCSGSSTNYADSVKGRFTISRDNAKNTVYFQMNSLKPEDTAVYYCAARSRRYHRTKPKYDYWGQGTQVTVSS | high polyreactivity
QVQLVESGGGLVQAGGRLRLSCAASGSIFNYYARGWYRQAPGKERELVAAIPTSGGNPYYADSVKGRFTISRDNAKNTVKLQMNSLKPEDTALYNCAADYWASGGEYDYWGQGTQVTVSS | low polyreactivity
QVQLVESGGCLVQAGGSLRLSCAASGRIFQAYAMGWYRQAPGKERELVAAINRSGNTNYADSVKGRFTISRDNAKNTVYLQMNSLKPEDTAVYYCAADAVSFSYFGYQRMDYWGQGTQVTVSS | low polyreactivity
QVQLVESGGGLVQAGGSLRLSCAASGSIFSTYAMGWYRQAPGKERELVAAISTRGGRTYYADSVKGRFTISRDNAKNTVYLQMNSLKPEDTAVYYCAAKRGKTYQRFDYWGQGTQVTVSS | high polyreactivity
QVQLVDSGGGLVQAGGSLRLSCAASGFIFLTYGMGWYRQAPGKERELVATITSVGSTNYADSVKGRFTISRDNAKNTVYLQMNSLKPEDTAVYYCAAVSTYHVEFDFWAEYGYWGQGTQVTVSS | low polyreactivity
QVQLVESGGGLVQAGRSLRLSCAASGRTFARYAMGGYRQAPGKERELVAAINSGGSTNYADSVKGRFTISRDNAKNTDYLQMNSLKPEDTAVYYCAADSYWKWYIAYPYYWGQGTQVTVSS | high polyreactivity
QVQLVESVGCLVQAGGSHRLSCAASVFIFGANAMGWYRQAPGKESELVAAIRWSSGTTYYADSVKGRFTISRDNAKNTVYLQINSLKPEDTAVYYCAAGGLARTWYAYYYWGQGTQVTVSS | low polyreactivity
QVQLVESGGGLVQAGGSLRLSCAASGPTFYKYAMGWYRQAPGKERELVATITRRGGSTYYADSVKGRFTISRDNAKNTVYLQMNSLKPEDTAVYYCAKEIFQKGPDGHDYWGQGTQVTVSS | low polyreactivity
QVQLVESGGPLVQAGGSLRLSFAACGFTLWSYSLGWYRQAPGKESELVAAINSRGGRTSYADSVKGRFTISRDNAKNTVYLQINRLKPEDTAVYYCATDPISRARLYGQRDYWGQGTQVTVSS | high polyreactivity
QVQLVESGGGLVQAGGSLRLSCAASGSIRYYAMGWYIQAPGKERELVAAISSRGTNTYYADSVKGRFTISRDNAKNTVYLQMNSLKPEDTAVYYCNAVVGLGYNYWGQGTQVTVSS | high polyreactivity

Sequence | polyreactivity (PSR sort gate)
QVQRVESGGGLVQAGGSLRLSCAASGFIFPWYAMGWYRQAPGKESELVAAISRGGRTNYADSVKGRFTISRDNAKNTVYLQMNSLKPEDTAVYYCAKKYYLSGSRADDSGGQGTQVTVSS | high polyreactivity
QVQLLESGGGLVQAGGSLRLSCAASGSIFRANAMGWYRQAPGKERELVAAITNGGRTNYADSVKGRFTISRDNAKNTVYLQMNSLKPEDTAVYYCAKDIYQHAKRRYDYWGQGTQVTVSS | low polyreactivity
QVQLVESGGGLVQAGGSLRLSCAASGSIFRGYAMGWYRQAPGKGRELVAAISWSGASTYYADSVKGRFTISRDNAKNTVYLQMNSLKPEDTAVYYCAAVQWTGYPFDYWGQGTQVTVSS | high polyreactivity
QVQLQDSGGGLVQAGGSLGLSCAASGYIFGSGSMGWFRQAPGKERELVATINNGSSTYYADSVKGRFTISRDNSKNTVSLQMNSLKPEDTAVYYCAVYLYRLTFFYYWGQGNQVTVSS | high polyreactivity
QVQLVESGGGLVQAGGSLRLSCAASGSIFYAYYMGWYRQAPGKESELVAAINWSGDSTYYADSVKGRFTISRDNAKNTVYLQMNSLKPEDTAVYYCAAVSGSGDSGEYDYWGQGTQVTVSS | low polyreactivity
QVQLVESGGGLVQAGGSLRLSCAASGNIFYINTMGWYRQAPGKERELVAAIDASDGSTYYADSVKGRFTISRDNAKNSVYLQMYSLKPEDTAVYYCASRRGYDSVYYFYTLWYYYWGQGTQVTVSS | low polyreactivity
QVQLVESGGGLVHAGGSLRLSCAASGRIFTSYVMGWYRQAPAKERELVAAITRSGGSTYYADSVKGRFTISRDNAKNTVYLQMISLKPEDTAVYYCNALTRRQKGGEGGGYWGQGTQVTVSS | high polyreactivity
QVQLVESGGGLVQAGGSLRLSCAASGSIFGENAMGWYRQAPGKERELVAAITSGGSTDYADSVKGRFTISRDNAKNTVYLQMNSLKPEDTAVYYCAASGRVGPGYWYDSWGQGTQVTVSS | low polyreactivity
QVQLVESGGGLVQAGGSLRLSCAASGSIFAYAMGWYRQAPGKQRELVAGISSSGGRTYYADSVKGRFTISRDNAKNSVYLQMNSLKPEDTAVYYCAARAQSPPYGYWGQGTQVTVSS | high polyreactivity
QVQLVESGGGLVQAGGSLRISCAPSGSTFYYNAIGWSRQAPGKERELVARISRSGGSTYADSVKGRFTISRDNAKNTVYLQMNSLKPEDTAVYYCNADAYGTPEFTSYAVRYDYWGQGTQVTVSS | low polyreactivity
QVQLVESGGGLVQAGGSLRLSCAASGIIIRYYGMGWYRQAPGKERELVARIRWTGGSTYYADSVKGRFTISRDNAKNTVYLQMNSLKPEDTAVYYCAAQWKYRQSYLDYYWGQGTQVTVSS | low polyreactivity
QVQLVESGGGLVQAGGSLRVSCAASGLTLPPYAMGWDRQAPGKERELVAAITSGGSTNYADSVKGRFTISRDKAKNTVYLQLNSLKPEDTAVYYCAAVGRHYYVKFDFWGQGTHVTVSS | low polyreactivity
QVQLVESGGGLVQAGGSLRLSCAASGIIFSYNAMGWYRQAPGKERELVAAITSGGITNYADSVKGRFTISRDNAKNTVYLQMNSLKPEDTAVYYCAAEVWRYYRRDYWGQGTQVTVSS | low polyreactivity
QFQLVESGGGLVQAGGSLRLSCAASGIILAYYAMGWYRKEPGKERELVSSINRSGGSTYYADSVKGRFTISRDNAKNTVYLQMISLKPEYTAVYYCAATNRGVGQRSYRYYYWGQGTQVSVSS | high polyreactivity
QVQLVESGGGLVQAGGSLRLRCAASGGIFGYYAMGLYRQAPGKERDFVAAITLSGGRTYYADSVKGRFTISRDNAKNTVYLQMNSLKPEDTAVYYCAAKGTRRGKERNYWGQGTQVTLSS | high polyreactivity
QVQLVESGGGLVQAGGSLRLSCAASGSIFRYYVMGWYRQAPGKERELVAAITGGGGSTYYADSVKGRFTISRDNAKNTVYLQMNSLKPEDTAVYYCATATYVGVYWEYDYWGQGTQVTVSS | low polyreactivity
QVQLVESGGGLVQAGGSLRLSCAASGTTFYSNAMGWYRQAPGKEREFVAAISYSGGSTYYADSVKGRFTISRDNAKYTVYLQMNSLKPEDTAVYYCNARNWYYDGDYWVQGTQVTVSS | high polyreactivity
QVQLVESGGGLVQAGGSLRLSCAASGSTFYRNAMGWYRQAPGKERELVATINRGGSTYYADSVKGRFTISRDNAKNTVYLQRNSLNPEDTAVYYCAKDSYYAGRFIYTPRAKYGYWGQGTQVTVSS | high polyreactivity
QVQLVESAGGLVQAGGSLRLSCAASGIIFDTNAMGCYRQAPGKERELVASISKRGGSTYYADSVKGRFTISRDNAKNTVYLQMNSLKPEDTAVYYCNALRRRQYHDDYWGQGTQVTVSS | high polyreactivity
QVQLVESGGGLVQAGGSLRLSCAASGSIFDGNAMGWYRQAPGKERELVAAITQSGCSTYYADSVKGRFTISRDNAKNTVYFQMNSLKPEDNAVYYCAADVPGVYPYDYWGQGTQVTVSS | low polyreactivity
QVQLVESGGGLVQAGGSLRLSCAASGSIFHPYTMGWYRQAPGKERELVAGISQSSDSTYYADSVKGRFTISRDNAKNTVYLQMNSLKPEDTAVYYCNRDNDWPLSVVEVDYWGQGTQVTVSS | low polyreactivity
